Measured values published in paper PMC3155284.

Key:
[1] = target: EphA2, endogenous (human (endogenous in PC3 and U251)) (UniProt P29317)
[2] = target: EphA2, endogenous (human (endogenous in PC3 and U251)) (UniProt P29317); remark: listed apart in the source

Chain of UniProt P29317 (P29317 24-976): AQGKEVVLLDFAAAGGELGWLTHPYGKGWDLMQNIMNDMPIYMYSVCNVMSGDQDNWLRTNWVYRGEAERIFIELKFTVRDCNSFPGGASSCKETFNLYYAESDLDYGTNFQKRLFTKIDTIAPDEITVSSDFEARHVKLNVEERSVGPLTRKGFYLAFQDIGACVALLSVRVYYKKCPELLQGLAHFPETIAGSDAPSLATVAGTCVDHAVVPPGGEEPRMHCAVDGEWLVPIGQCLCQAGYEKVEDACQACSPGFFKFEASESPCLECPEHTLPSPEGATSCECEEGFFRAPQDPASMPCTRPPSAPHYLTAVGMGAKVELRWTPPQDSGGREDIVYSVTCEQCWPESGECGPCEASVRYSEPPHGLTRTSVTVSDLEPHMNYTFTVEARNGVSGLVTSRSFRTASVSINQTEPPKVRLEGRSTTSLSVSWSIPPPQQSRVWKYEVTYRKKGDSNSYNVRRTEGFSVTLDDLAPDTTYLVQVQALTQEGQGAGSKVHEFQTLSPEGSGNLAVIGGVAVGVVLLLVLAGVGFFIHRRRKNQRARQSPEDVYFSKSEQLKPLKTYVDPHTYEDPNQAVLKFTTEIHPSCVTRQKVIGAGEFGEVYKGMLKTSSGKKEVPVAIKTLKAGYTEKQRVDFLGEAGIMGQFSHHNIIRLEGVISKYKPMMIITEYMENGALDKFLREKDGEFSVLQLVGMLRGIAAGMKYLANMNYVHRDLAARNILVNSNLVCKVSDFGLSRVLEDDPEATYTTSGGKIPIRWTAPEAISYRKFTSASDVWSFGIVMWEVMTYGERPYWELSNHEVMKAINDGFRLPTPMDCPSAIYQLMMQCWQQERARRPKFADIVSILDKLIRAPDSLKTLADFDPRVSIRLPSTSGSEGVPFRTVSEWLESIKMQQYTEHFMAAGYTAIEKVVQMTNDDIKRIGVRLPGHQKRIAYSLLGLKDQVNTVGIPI

rounding of PC3 cells after a brief exposure to ephrin A1-Fc [1]: 90%
inhibition of U251 cell migration in Boyden chambers by ligand [2]: 50%
Substance: ephrin A1-Fc (from UniProt P20827 19-182) (Fc fusion)
